# From IntAct's records for PubMed 17341134
# Biological target: cdk5_rat Cdk5 (UniProt Q03114)
row,effect of a mutation on the interaction,Substance
1,decreasing interaction,"BDNF/NT-3 growth factors receptor (Rattus norvegicus (Rat)), Q63604 S478A"
2,decreasing interaction,"BDNF/NT-3 growth factors receptor (Rattus norvegicus (Rat)), Q63604 T489A"
